Experimental data published in the supplement of paper PMC11780869.

The sequences below were run on Bacillus subtilis (assay: cleaved RNA product abundance (RNA/gDNA barcode ratio) relative to median wild-type variant (ratio to wild type); higher = more accumulation of the downstream cleavage product). Conditions: experiment (reporter, strain, medium): exp 8a: truncated aprE reporter, strain BJT201 with 2% xylose (RNase J1 expressed); cleavage site: glnRA (positions -5 to +31 mutated).
Outline: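 B. subtilis strains with chromosomally integrated reporter mRNAs (truncated aprE or tetM) holding barcoded, mutagenized RNase Y cleavage-site windows grew in LB at 37°C from OD600 0.0003 to 0.3. Cleaved product abundance is each construct's RNA:gDNA barcode ratio, scaled to the median construct with the unmutated site. It came from sequencing barcodes of gel-selected, reverse-transcribed cleaved RNA and of genomic DNA.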

| Sequence | cleaved RNA product abundance |
| --- | --- |
| CGACATGTCCCGCTTCTTTCATTATTCCGTTAGCAACTGTTTTGCTATATACATTAACCTTTTAAGAGGAGGAAT | 1.44 |
| CGACATGTCCCGCTTCTTTCATTATTCCGTTAGCAACTGTTTTGCTATATACATTCACCTTTTAAGAGGAGGAAT | 1.3 |
| CGACATGTCCCGCTTCTTTCATTATTCCGTTAGCAACTGTTTTGCTATATACATTGACCTTTTAAGAGGAGGAAT | 1.55 |
| CGACATGTCCCGCTTCTTTCATTATTCCGTTAGCAACTGTTTTGCTATATACATTTAACTTTTAAGAGGAGGAAT | 1.71 |
| CGACATGTCCCGCTTCTTTCATTATTCCGTTAGCAACTGTTTTGCTATATACATTTACATTTTAAGAGGAGGAAT | 1.98 |
| CGACATGTCCCGCTTCTTTCATTATTCCGTTAGCAACTGTTTTGCTATATACATTTACCATTTAAGAGGAGGAAT | 1.89 |
| CGACATGTCCCGCTTCTTTCATTATTCCGTTAGCAACTGTTTTGCTATATACATTTACCCTTTAAGAGGAGGAAT | 0.558 |
| CGACATGTCCCGCTTCTTTCATTATTCCGTTAGCAACTGTTTTGCTATATACATTTACCGTTTAAGAGGAGGAAT | 1.18 |
| CGACATGTCCCGCTTCTTTCATTATTCCGTTAGCAACTGTTTTGCTATATACATTTACCTTTTAAGAGGAGGAAT | 1.42 |
| CGACATGTCCCGCTTCTTTCATTATTCCGTTAGCAACTGTTTTGCTATATACATTTACGTTTTAAGAGGAGGAAT | 2.39 |
| CGACATGTCCCGCTTCTTTCATTATTCCGTTAGCAACTGTTTTGCTATATACATTTACTTTTTAAGAGGAGGAAT | 1.96 |
| CGACATGTCCCGCTTCTTTCATTATTCCGTTAGCAACTGTTTTGCTATATACATTTATCTTTTAAGAGGAGGAAT | 1.8 |
| CGACATGTCCCGCTTCTTTCATTATTCCGTTAGCAACTGTTTTGCTATATACATTTCCCTTTTAAGAGGAGGAAT | 1.01 |
| CGACATGTCCCGCTTCTTTCATTATTCCGTTAGCAACTGTTTTGCTATATACATTTGCCTTTTAAGAGGAGGAAT | 0.599 |
| CGACATGTCCCGCTTCTTTCATTATTCCGTTAGCAACTGTTTTGCTATATACATTTTCCTTTTAAGAGGAGGAAT | 0.792 |
| CGACATGTCCCGCTTCTTTCATTATTCCGTTAGCAACTGTTTTGCTATATACCTTTACCTTTTAAGAGGAGGAAT | 0.383 |
| CGACATGTCCCGCTTCTTTCATTATTCCGTTAGCAACTGTTTTGCTATATACGTTTACCTTTTAAGAGGAGGAAT | 0.645 |
| CGACATGTCCCGCTTCTTTCATTATTCCGTTAGCAACTGTTTTGCTATATACTTTTACCTTTTAAGAGGAGGAAT | 0.815 |
| CGACATGTCCCGCTTCTTTCATTATTCCGTTAGCAACTGTTTTGCTATATAGATTTAACTTTTAAGAGGAGGAAT | 0.911 |
| CGACATGTCCCGCTTCTTTCATTATTCCGTTAGCAACTGTTTTGCTATATAGATTTACCTTTTAAGAGGAGGAAT | 1.02 |
| CGACATGTCCCGCTTCTTTCATTATTCCGTTAGCAACTGTTTTGCTATATATATTTACCTTTTAAGAGGAGGAAT | 1.45 |

| Sequence | cleaved RNA product abundance |
| --- | --- |
| CGACATGTCCCGCTTCTTTCATTATTCCGTTAGCAACTGTTTTGCTATATCCATTTACCTTTTAAGAGGAGGAAT | 0.359 |
| CGACATGTCCCGCTTCTTTCATTATTCCGTTAGCAACTGTTTTGCTATATTCATTTACCTTTTAAGAGGAGGAAT | 0.669 |
| CGACATGTCCCGCTTCTTTCATTATTCCGTTAGCAACTGTTTTGCTATCTACATTTACCTTTTAAGAGGAGGAAT | 0.167 |
| CGACATGTCCCGCTTCTTTCATTATTCCGTTAGCAACTGTTTTGCTATGTACATTTACCTTTTAAGAGGAGGAAT | 0.184 |
| CGACATGTCCCGCTTCTTTCATTATTCCGTTAGCAACTGTTTTGCTATTTACATTTACCTTTTAAGAGGAGGAAT | 0.131 |
| CGACATGTCCCGCTTCTTTCATTATTCCGTTAGCAACTGTTTTGCTCTATACATTTACCTTTTAAGAGGAGGAAT | 0.354 |
| CGACATGTCCCGCTTCTTTCATTATTCCGTTAGCAACTGTTTTGCTGTATACATTTACCTTTTAAGAGGAGGAAT | 0.298 |
| CGACATGTCCCGCTTCTTTCATTATTCCGTTAGCAACTGTTTTGCTTTATACATTTACCTTTTAAGAGGAGGAAT | 0.401 |
| CGACATGTCCCGCTTCTTTCATTATTCCGTTAGCAACTGTTTTGGTATATACATTTACCTTTTAAGAGGAGGAAT | 0.304 |
| CGACATGTCCCGCTTCTTTCATTATTCCGTTAGCAACTGTTTTGTTATATACATTTACCTTTTAAGAGGAGGAAT | 0.541 |
| CGACATGTCCCGCTTCTTTCATTATTCCGTTAGCAACTGTTTTTCTATATACATTTACCTTTTAAGAGGAGGAAT | 0.62 |
| CGACATGTCCCGCTTCTTTCATTATTCCGTTAGCAACTTTTTTGCTATATACATTTACCGTTTAAGAGGAGGAAT | 2.31 |
| CGACATGTCCCGCTTCTTTCATTATTCCGTTAGCAACTTTTTTGCTATATACATTTACCTTTTAAGAGGAGGAAT | 2.24 |
| CGACATGTCCCGCTTCTTTCATTATTCCGTTAGCAACTTTTTTGCTATATACTTTTACCTTTTAAGAGGAGGAAT | 0.558 |
| CGACATGTCCCGCTTCTTTCATTATTCCGTTAGCAAGTGTTTTGCTATATACATTTACCTTTTAAGAGGAGGAAT | 1.46 |
| CGACATGTCCCGCTTCTTTCATTATTCCGTTAGCAATTGTTATGGTATATACAATTATCTTTTAAGAGGAGGAAT | 0.256 |
| CGACATGTCCCGCTTCTTTCATTATTCCGTTAGCAATTGTTTTGCTATATACATTTACCTTTTAAGAGGAGGAAT | 1.83 |
| CGACATGTCCCGCTTCTTTCATTATTCCGTTAGCACCTGTTTTGCTATATACATTTACCTTTTAAGAGGAGGAAT | 1.18 |
| CGACATGTCCCGCTTCTTTCATTATTCCGTTAGCAGCTGTTTTGCTATATACATTTACCTTTTAAGAGGAGGAAT | 1.16 |
| CGACATGTCCCGCTTCTTTCATTATTCCGTTAGCATCTGTTTTGCTATATACATTTACCTTTTAAGAGGAGGAAT | 1.34 |
| CGACATGTCCCGCTTCTTTCATTATTCCGTTAGCCACTGTTTTGCTATATACATTTACCTTTTAAGAGGAGGAAT | 0.595 |

| Sequence | cleaved RNA product abundance |
| --- | --- |
| CGACATGTCCCGCTTCTTTCATTATTCCGTTAGCGACTGTTTTGCTATATACATTTACCTTTTAAGAGGAGGAAT | 0.759 |
| CGACATGTCCCGCTTCTTTCATTATTCCGTTAGCTACTGTTTTGCTATATACATTTACCTTTTAAGAGGAGGAAT | 0.764 |
| CGACATGTCCCGCTTCTTTCATTATTCCGTTAGGAACTGTTTTGCTATATACATTTACCTTTTAAGAGGAGGAAT | 0.44 |
| CGACATGTCCCGCTTCTTTCATTATTCCGTTAGTAACTGTTTTGCTATATACATTTACCTTTTAAGAGGAGGAAT | 0.651 |
| CGACATGTCCCGCTTCTTTCATTATTCCGTTATCAACTGTTTTGATATATACATTTACCTTTTAAGAGGAGGAAT | 0.385 |
| CGACATGTCCCGCTTCTTTCATTATTCCGTTATCAACTGTTTTGCTATACACATTTACCTTTTAAGAGGAGGAAT | 0.188 |
| CGACATGTCCCGCTTCTTTCATTATTCCGTTATCAACTGTTTTGCTATATACATTTACCTTTTAAGAGGAGGAAT | 0.265 |
| CGACATGTCCCGCTTCTTTCATTATTCCGTTCGCAACTGTTTTGCTATATACATTTACCTTTTAAGAGGAGGAAT | 0.283 |
| CGACATGTCCCGCTTCTTTCATTATTCCGTTGGCAACTGTTTTGCTATATACATTTACCTTTTAAGAGGAGGAAT | 0.851 |
| CGACATGTCCCGCTTCTTTCATTATTCCGTTTGCAACTGTTTTGCTATATACATTTACCATTTAAGAGGAGGAAT | 0.356 |
| CGACATGTCCCGCTTCTTTCATTATTCCGTTTGCAACTGTTTTGCTATATACATTTACCTTTTAAGAGGAGGAAT | 0.543 |
| CGACATGTCCCGCTTCTTTCATTATTCCGTTTTCAACTGTTTTGCTATATACATTTACCTTTTAAGAGGAGGAAT | 0.361 |
| CGACATGTCCCGCTTCTTTCATTATTCCTTAAACAACTGTTTTGTAATATACATTATACCTTTAAGAGGAGGAAT | 0.242 |
| CGACATGTCCCGCTTCTTTCATTATTCCTTTACCAACAGTTTTGCTATATACATTTACCTTTTAAGAGGAGGAAT | 0.112 |
| CGACATGTCCCGCTTCTTTCATTATTCCTTTACCAACTTTTTTGCTATATATATATACCTTTTAAGAGGAGGAAT | 0.182 |
| CGACATGTCCCGCTTCTTTCATTATTCCTTTAGCAACTGTTTTGATATATACATTTACCTTTTAAGAGGAGGAAT | 0.465 |
| CGACATGTCCCGCTTCTTTCATTATTCCTTTAGCAACTGTTTTGCTATATACATTTACCTTTTAAGAGGAGGAAT | 1.04 |
| CGACATGTCCCGCTTCTTTCATTATTCGGTTAGCAACTGTTTTGCTATATACATTTACCTTTTAAGAGGAGGAAT | 1.73 |
| CGACATGTCCCGCTTCTTTCATTATTCTGTTAGCAACTGTTTAGCTATATACATTTACCTTTTAAGAGGAGGAAT | 0.759 |
